{"source": "paper PMC11422484", "about": "(Cell Reports, 2024)", "binders": {"B1": {"name": "25.10C IgG (antibody, V domains shown)", "VH": "QVQLQESGGGLVKPGGSLRLSCTASGFNFNKYNMNWVRQAPGKGLEWVSSISALSTYIYYADSLKGRFTVSRDNAKNSLFLQMNSLRDDDTAVYYCAREIRRASTWSADLWGRGTLVTVSS", "VL": "DIQMTQSPSSLSASVGDRVIITCRASQSISSSLNWYQQKPGKAPKLLIYAAVNLETGVPSRFSGSGFGTDFTLAISNVQPEDFATYYCQQSDTRTFGRGTKLDVK", "notes": "IgG1"}}, "molecular_target": "full-length native GPC (strain Josiah) expressed on HEK293T cells (Lassa virus, strain Josiah, UniProt P08669)", "test": "flow cytometry on cells", "conditions": "one partner purified"}
{"binder": "B1", "values": [{"measurement": "binding result", "value": "binds"}]}
